Experiment in all cases: fluorescence polarisation
On the technique in general: Polarisation of emitted light reports the rotation of a fluorescent probe.

Assay [1] addresses fluorescein-labeled CaV1.2 IQ peptide WT (residues 1644-1666) (rat).
The target of assay [2] is fluorescein-labeled CaV1.2 IQ peptide K1662E (rat).
In assay [3] the target is fluorescein-labeled CaV1.2 IQ peptide K1647E (rat).
The target of assay [4] is fluorescein-labeled CaV1.2 IQ peptide K1647A (rat).
Assay [5] has as its target fluorescein-labeled CaV1.2 IQ peptide WT (residues 1644-1666) (rat). The source holds these as a separate data set.

Where a chain is given by its changes, count along the chain named. Names and notes keep the numbering of the source. Values joined by “and” are separate entries in the source; they are usually repeats but may differ in a detail not shown here. Equal values may be shown once.

Turning to “apoCaM mutant E88K (from UniProt P0DP33 3-149) (natural protein)”, in assay [1], the fold decrease in binding affinity against the WT pair was greater than 5 fold.

As usually defined, the Kd is the free concentration of one partner at which half of the binding sites on the other are occupied at equilibrium, for simple one-to-one binding. Low readings indicate higher affinity, high ones lower affinity. “Ca2+-free calmodulin (apoCaM) (from UniProt P0DP33 1-149) (natural protein)”: in assay [2], the fold decrease in binding affinity against the WT pair was greater than 5 fold. For the same molecule, the Kd in assay [1] is 10 µM and 2.6 µM.

On to “apoCaM mutant F90A (from UniProt P0DP33 3-149) (natural protein)”, for which the fold decrease in binding affinity against WT apoCaM in assay [1] is 3.3 fold.

B1: α-actinin-1_EF34 (residues 822-892) (domain or fragment)
chain: DTDTADQVMASFKILAGDKNYITMDELRRELPPDQAEYCIARMAPYTGPDSVPGALDYMSFSTALYGESDL
In the case of B1, the fold increase of Kd against the WT IQ peptide in assay [3] and in assay [4] was 5 fold each time.

B2: α-actinin-1_EF34 mutant E847K/E851K (domain or fragment)
chain: B1 chain with E26K, E30K
For the molecule B2, in assay [5], the fold increase of Kd against WT α-actinin-1 EF3/4 came to 12 fold.

B3: α-actinin-1 EF3/4 mutant F833A (domain or fragment)
chain: B1 chain with F12A
In assay [5], B3 returned a fold decrease in binding affinity against WT α-actinin-1 EF3/4 of 8 fold.

Values taken from doi:10.1101/664102.
